This note sets out measurements from a protein production outcome set (Wang et al. 2014).

The data set in a line: label from the status in PepcDB records.
For the sequence “MDKALTNRVIILSFDCLSALDFPILQKLPHFQSLIKKGTVVEKVEPIYPSVTYPSHSTIVTGNYPNKHGVVSNTLLQPGRESPDWHWYRKSIKGTTLYDEAHKANLTTAALLWPVTGRANIDYNLPEIFPNRPWQNQVLVSLFSGSPLYQLDLNRRFGHIRNGLSQPELDDFVLASAVHTIQTKKPNVMFVHFTDLDTQRHYHGFESKETIAAIHRHDERLGQIIQALKDSDLYEESTIIALGDHSALSENKAIQLNVLFHQKGLISVNSKGNLVDWKVYCQSCDGSAYVYVKDKNDTDTIREVQLLLEELLQHKQNGIEFILHDEDAKECGADGNCLFMLEAREGYYFTENYTGDFIKEITEKDVTPSKKYTFGTHGYSPTKPNYETIFIAAGKGIKSGVTIPYMRLIDEGPTIARLLGLHLGETDGSIVEDLLQL”, the protein production entry was “failed”.

As to “MDKASRFDRMVKEKKNDELGLFEKYEETLAEIRKRIIKYKAKTVVDMGCGTGNLCGELSKEIEALGIDKSLEMLEGAKRKYKHIKFKIGSFSDKPFIGKWAGVVVTTYAFHGLNSEEKKEAIKNMIGYLKDDGRIIIGDYMFKNKAEKEECRNKLLSKKRQDLWEVIDGRYYTDLEELKDYVKSLGFKIISEHIVNFTWIVEIYK”, the protein production entry is “failed”.

Turning to “MDKDLKLRPRIKRLLSPAVMQAELLGGAAWLWVLMLGPSVKINLFTCFLTLSLACICWIQHTTTVFCIWRLLGIAYMLLLATGFFYLMDGDPEINIFALPLTITLAISSALLFVKFLDYLLSAVFVWLLTWLCWQEGVYGEIGIYVWIFCVASVCIGSVLNISYIKTLRAVLSLESKFRELAETDYLTSIPNRRAFMESFDSLIKGGESGYLIMLDIDNFKLINDRHGHEIGDRILCSMAACLRATSGSHCAGRIGGEEFGVLITGGDELTACDYILRLLETVRANFDPPYNYSCSVGMVRFSAASTMSEALSMADKSMYIAKRNGKDCAYFEGQEIVSFLFDDSKLKEKYPTETLSENTYQTDTQ”, the protein production result is recorded as “failed”.

In the case of “MDKIIIQGARENNLKNIFLEIPKNQFVVFTGLSGSGKSTLAFDTLYAEGQRRYLESLSSYARQFLDKVGKPNVDKIEGLTPAIAIDQKTTSKNPRSTVGTITEIYDYLRLLFARVGEQFCPTCLEPISSMSTSDIISQICHLEENSKIIILAPIIKDKKGSFNDKLESLRLKGYVRAFVDGVMVRLDEEIHLHKTKKHTIEAVVDRVVVNNENASRIASAIEKALKESYGELEVEILQDNAPSIRKHYSEHKACFKCKMSFEELEPLSFSFNSPKGACESCLGLGTKFSLDISKILDPNTPLNQGAIKVIFGYNRSYYAQMFEGFCEYNGIDSALCFNELNKEQQDALLYGNGTEISFHFKNSPLKRPWKGIIQIAYDMFKEQKDLSDYMSEKTCSSCEGHRLKASSLSVQVAGLKMADFLTKPIEEVYHFFNDPTHFSYLNEQEKKIAEPILKEILERVFFLYDVGLGYLTLGRDARTISGGESQRIRIASQIGSGLTGVLYVLDEPSIGLHEKDTLKLINTLRNLQKKGNTLIVVEHDKETIKHADFVVDIGPKAGRHGGEVVFSGSVKELLQNNHSTALYLNGTKKIERPKFELPKEKHFLEIKNVNINNIKNLSVQIPLKQLVCITGVSGSGKSSLILQTLLPTAQTLLNHAKKTQSLNGVEIVGLEHLDKVIYLDQAPIGKTPRSNPATYTGVMDEIRILFAEQKEAKILGYSASRFSFNVKGGRCEKCQGDGDIKIEMHFLPDVLVQCDSCKGAKYNPQTLEIKVKGKSIADVLNMSVEEAYEFFAKFPKIAVKLKTLMDVGLGYITLGQNATTLSGGEAQRIKLAKELSKKDTGKTLYILDEPTTGLHFEDVNHLLQVLHSLVALGNSMLVIEHNLDIIKNADYIIDMGPDGGDKGGKVIASGTPLEVAQNCEKTQSYTGKFLALELK”, the protein production result was “failed”.

As to “MDKIRTLLLRLPRRQKRVLQVVTDILLVWVALWMAFVVRLGFDDLNNPFIVHFWLFASAPIVAIPLFIRFGMYRAVMRYFGNDALIAIVKAVTLSALTLALVVYVYSNHQTVVPRSIVFNYWWLSMVMIGGLRLAMRQYFLGDWFTTAQHVPFTNRDDGLPKVAIYGAGAAGNQLVAALRLGRLMRPVAFIDDDGSIADRMIAGLQVYKPKHLQQMIDDTGAEEILLAIPSSSRSRRREILGYLEGFPLHVRSVPGFMDLASGRVKVDDIQEVDIADLLGRDAVPAQVDLLAHCIKGQTVLVTGAGGSIGSELCRQILLQGPSTLILLDHSEFNLYSILSELEQRVSRESRLVKLLPILGSVRNYEKLLSVMRTWSVDTVYHAAAYKHVPMVEHNIAEGVLNNVMGTLNTAQAALQCGVANFVLISTDKAVRPTNVMGSTKRLAELTLQALSKELAPVLFDDLSNVSRVNKTRFTMVRFGNVLGSSGSVIPLFHKQIKSGGPLTVTHPKITRYFMTIPEAAQLVIQAGSMGQGGDVFVLDMGEPVRIVELAEKMIHLSGLSVRSEKNPHGDIAIEFTGLRPGEKLYEELLIGDNVAATQHPMIMSANEDHLPWETLKLKLAELLAALELDDYARVRQLLRETVSGYTPDGEIVDWVYQQRRLKP”, the protein production result was “failed”.

For “MDKKSKPDWAGESLLSNFVNLLIQTKPIYGVMKQQARQVLIKTAEKNGIPWRKNYEALQVSPAKKLLAAVTNPHVIYPDYYKVPFHAYTEGNLCWDAAFETESATYAMALRVWPQENLTWEAAHARLRGTFHDALETYAPQQVRDILDIGCSVGVSTLALHRYYQRRERYPVRTVGLDLSPYMLAVAKTRDVNSEISEWLHARAENTGLPDKSFDLVTIQFVTHELPGYVSQEIFAEAKRLLRPGGYIALVDNNPRSPVIQNLPPVLFTLMKSTEPWSDDYYTFDIEAALQAVGFAPPITVPSDPRHRTIIARKPD”, the protein production result is listed as “failed”.

With “MDKKVEKIQEKVRLFYKKHQRNTTIVVVISLSMILILGMAAWYEGKGISYEAKQTALREKQHALQKKRDDILAGKMTEASTQTTINNFSKQEITGENELVTITGTNGQLNINDANIYVSDNAGIVSNQLKQKMFQLNQQLLENANGAQFMLITVPALPSGESVESYSNKIANQLGVGDREKNNGVVFLMAIEDRESRLEVGYGLESILTDSYADDIINNEEVKEAFRDEDYNTGLNKIIDQVSAAINSKTAQVDNELTNIQTELNTNTTKRNVLLMASIAGMLICAVYILQILRTRKLVKKMYQDYLNCLPTKAVLNNSEQTKKVLNKMKKTSFYCLYLNGATLFATKGKIRRATKRGSLLSIYPNAKKQSFGRLLVGDTLYSYDGSVLTYAYLNSQYNPSNHSSSGSGSGGSFGGGSFGGGGASGSWLEHHHHHH”, the protein production entry was “not failed”.

As for “MDKLEPLRINMRHGSILAVHFFIPGKPTICHQTARTLIRHIPFQCLLRVTSQNLDVGEFVKIYHEEKAEVKSSSLAKKIPKTSNLLASTSDKLELARAITTFKEEEIRHLAEPDDVDFVLTLDVADVGVSKIVIDVGSLIDLLFLSTLGENGK”, the protein production entry was “failed”.

Take “MDKNTRVGKRKKRNKAMRIFWSVMAVILVAIGGFALYEYNTVKNAADTAYRSGGLGNAENGSKNSVISNSKPIAILLMGTDTGALGRTYKGRTDSIMVAVLNPKTKKTTLVSFERDQQVNLPDYPENSPSKLNAAYAYGNAKELAKVLKKYYNIPINAYVLINMGGLKTIVNKVVGVDIAPILSFSYEGYTFTKGKTTHMDGAKALAYSRMRYDDPEGDYGRQKRQRQVLSALLNKAESATTLLNSSFISSLSKQVQTDFTFSDMTSMAKRYLAATKDLKTDYTHGTSYMQDGVSYQKVSVSERQRISNLIRKTLGLKTKTVSTDSIDTSTSSSSSSSSTTTDSDTTGGAGNTAGPSDNGAAAGNGADSGTTGGYSAGNDQNNSTGY”: the protein production result was “failed”.

On to “MDKPALPIYLVVHFSYGDVTFPLQGRSYWTVGRSQDNDLVIRDNCISRNHAILQATEEDTFLLIDLGSRNGTFVNGRRVSVPIAIQDQDKITFGKTEAQFYSDQNGTPSGLLRNPAEWDTQTNVLHERRLITVLVADMRNFTGMAQQVEEELLSMLIGNWFRQAGHILREAGSWVDKYIGDAVMAIWFHGYNEATPAEIIQILHAVNRLQAMTAKLNQKYELPFPLRIGTGINTGYAMVGNTGSGDHPDYTAIGDTVNAAFRLESATKQAHFDLAMSEKTFSYLQDLPQWSATVQQHTIELKGYTNPITIYGLPFATLGTLLDHTSLEDTTPASEGP”, for which the protein production result is “failed”.
